Test system: Escherichia coli TOP10
Assay: shrunken log2 fold change of peptide-encoding DNA abundance (4.5 h post-induction vs induction); higher = less antimicrobial activity (less host growth inhibition)
Settings: time post-induction: 4.5 h; library: site-saturation at positions 5, 18, 19, 20
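Note: peptides expressed intracellularly from a pBAD plasmid library in pooled LB shake-flask culture, induced with 0.3% L-arabinose, DNA abundance read by NGS, three biological replicates, DESeq2 with apeglm shrinkage.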

| Sequence | shrunken log2 fold change |
| --- | --- |
| RRIRGRPPRLPRPRPRPACAPRP | 1.13 |
| RRIRVRPPRLPRPRPRPLPHPRP | 0.0915 |
| RRIRFRPPRLPRPRPRPDKSPRP | 0.053 |
| RRIRRRPPRLPRPRPRPCRTPRP | 0.173 |
| RRIRARPPRLPRPRPRPEVAPRP | 0.214 |
| RRIRIRPPRLPRPRPRPYVDPRP | -0.0276 |
| RRIRERPPRLPRPRPRPPTHPRP | 0.0517 |
| RRIRRRPPRLPRPRPRPWNMPRP | -0.479 |
| RRIRNRPPRLPRPRPRPQTEPRP | -0.219 |
| RRIRRRPPRLPRPRPRPRMRPRP | 0.744 |
| RRIRCRPPRLPRPRPRPSHEPRP | -0.334 |
| RRIRWRPPRLPRPRPRPVLIPRP | -0.0326 |
| RRIRIRPPRLPRPRPRPITIPRP | -0.436 |
| RRIRIRPPRLPRPRPRPHIIPRP | -0.614 |
| RRIRIRPPRLPRPRPRPIDVPRP | 0.00859 |
| RRIRYRPPRLPRPRPRPSKNPRP | -0.722 |
| RRIRDRPPRLPRPRPRPAYVPRP | -0.00133 |
| RRIRNRPPRLPRPRPRPKAWPRP | 0.133 |
| RRIRTRPPRLPRPRPRPTHMPRP | -0.0271 |
| RRIRGRPPRLPRPRPRPPHGPRP | 0.903 |
| RRIRERPPRLPRPRPRPWAAPRP | -0.101 |
| RRIRCRPPRLPRPRPRPHWGPRP | 0.143 |
| RRIRPRPPRLPRPRPRPPTIPRP | -0.148 |
| RRIRTRPPRLPRPRPRPKWKPRP | -0.0786 |
| RRIRCRPPRLPRPRPRPRHPPRP | 0.11 |

| Sequence | shrunken log2 fold change |
| --- | --- |
| RRIRSRPPRLPRPRPRPCCYPRP | 0.145 |
| RRIRPRPPRLPRPRPRPQCCPRP | 0.0723 |
| RRIRYRPPRLPRPRPRPRTFPRP | -0.757 |
| RRIRNRPPRLPRPRPRPGVWPRP | 0.474 |
| RRIRCRPPRLPRPRPRPEECPRP | -0.0128 |
| RRIRDRPPRLPRPRPRPKYGPRP | -0.0519 |
| RRIRARPPRLPRPRPRPIMSPRP | 0.0485 |
| RRIRLRPPRLPRPRPRPQSTPRP | -0.0595 |
| RRIRFRPPRLPRPRPRPGKRPRP | -0.0962 |
| RRIRFRPPRLPRPRPRPIGYPRP | -0.363 |
| RRIRDRPPRLPRPRPRPTRAPRP | 0.889 |
| RRIRWRPPRLPRPRPRPFWYPRP | -0.214 |
| RRIRRRPPRLPRPRPRPGPKPRP | 0.255 |
| RRIRARPPRLPRPRPRPAYFPRP | 0.0133 |
| RRIRTRPPRLPRPRPRPFHMPRP | -0.13 |
| RRIRRRPPRLPRPRPRPKIWPRP | 0.227 |
| RRIRCRPPRLPRPRPRPHRSPRP | -0.114 |
| RRIRERPPRLPRPRPRPCARPRP | 0.0326 |
| RRIRWRPPRLPRPRPRPYMRPRP | 0.0516 |
| RRIRRRPPRLPRPRPRPRTLPRP | 0.311 |
| RRIRYRPPRLPRPRPRPKCKPRP | -0.161 |
| RRIRVRPPRLPRPRPRPINPPRP | -0.327 |
| RRIRMRPPRLPRPRPRPGNEPRP | 1.05 |
| RRIRMRPPRLPRPRPRPFGFPRP | -0.0868 |
| RRIRNRPPRLPRPRPRPSLTPRP | -0.266 |

| Sequence | shrunken log2 fold change |
| --- | --- |
| RRIRTRPPRLPRPRPRPSAHPRP | -0.229 |
| RRIRNRPPRLPRPRPRPDSTPRP | -0.028 |
| RRIRHRPPRLPRPRPRPYVFPRP | -0.508 |
| RRIRLRPPRLPRPRPRPECIPRP | -0.0423 |
| RRIRTRPPRLPRPRPRPYGQPRP | -0.107 |
| RRIRKRPPRLPRPRPRPSNQPRP | -0.018 |
| RRIRWRPPRLPRPRPRPRSWPRP | 1.07 |
| RRIRDRPPRLPRPRPRPECGPRP | 1.71 |
| RRIRYRPPRLPRPRPRPWKDPRP | -0.0122 |
| RRIRSRPPRLPRPRPRPSCTPRP | -0.0382 |
| RRIRFRPPRLPRPRPRPRCFPRP | -0.183 |
| RRIRGRPPRLPRPRPRPVSPPRP | 0.101 |
| RRIRYRPPRLPRPRPRPQMGPRP | 0.0669 |
| RRIRDRPPRLPRPRPRPIQGPRP | 0.00911 |
| RRIRARPPRLPRPRPRPIWDPRP | 0.264 |
| RRIRDRPPRLPRPRPRPVPHPRP | 0.012 |
| RRIRDRPPRLPRPRPRPYPHPRP | 1.85 |
| RRIRRRPPRLPRPRPRPFGIPRP | 0.0306 |
| RRIRKRPPRLPRPRPRPAWMPRP | 0.212 |
| RRIRGRPPRLPRPRPRPEQRPRP | 0.926 |
| RRIRERPPRLPRPRPRPDEQPRP | -0.00815 |
| RRIRCRPPRLPRPRPRPDECPRP | -0.00243 |
| RRIRIRPPRLPRPRPRPRIHPRP | -0.287 |
| RRIRKRPPRLPRPRPRPIQWPRP | -0.00149 |
| RRIRPRPPRLPRPRPRPGNCPRP | -0.0898 |

| Sequence | shrunken log2 fold change |
| --- | --- |
| RRIRMRPPRLPRPRPRPTIYPRP | 0.713 |
| RRIRCRPPRLPRPRPRPKWNPRP | -0.373 |
| RRIRQRPPRLPRPRPRPRNYPRP | 0.034 |
| RRIRQRPPRLPRPRPRPIKGPRP | -0.0145 |
| RRIRSRPPRLPRPRPRPSLSPRP | -0.0859 |
| RRIRYRPPRLPRPRPRPIDLPRP | -0.0513 |
| RRIRFRPPRLPRPRPRPTAPPRP | 0.602 |
| RRIRFRPPRLPRPRPRPCRLPRP | -0.209 |
| RRIRPRPPRLPRPRPRPPFMPRP | 0.315 |
| RRIRYRPPRLPRPRPRPHMSPRP | -0.452 |
| RRIRLRPPRLPRPRPRPPSWPRP | 0.0349 |
| RRIRGRPPRLPRPRPRPMRMPRP | 1.4 |
| RRIRMRPPRLPRPRPRPHQHPRP | -0.0409 |
| RRIRYRPPRLPRPRPRPLVSPRP | -0.113 |
| RRIRGRPPRLPRPRPRPDWEPRP | 0.166 |
| RRIRGRPPRLPRPRPRPCMPPRP | -0.152 |
| RRIRCRPPRLPRPRPRPGCDPRP | 0.258 |
| RRIRLRPPRLPRPRPRPRYLPRP | -0.0102 |
| RRIRVRPPRLPRPRPRPLFDPRP | -0.172 |
| RRIRPRPPRLPRPRPRPCFNPRP | -0.512 |
| RRIRTRPPRLPRPRPRPIDMPRP | 0.00748 |
| RRIRLRPPRLPRPRPRPYRGPRP | -0.246 |
| RRIRMRPPRLPRPRPRPAHGPRP | 0.226 |
| RRIRARPPRLPRPRPRPQLYPRP | 0.0997 |
| RRIRKRPPRLPRPRPRPTKLPRP | 0.246 |

| Sequence | shrunken log2 fold change |
| --- | --- |
| RRIRERPPRLPRPRPRPPRVPRP | 0.342 |
| RRIRFRPPRLPRPRPRPLHRPRP | 0.136 |
| RRIRLRPPRLPRPRPRPDCNPRP | 0.0608 |
| RRIRARPPRLPRPRPRPIQRPRP | 0.112 |
| RRIRPRPPRLPRPRPRPRKWPRP | 0.671 |
| RRIRKRPPRLPRPRPRPDAEPRP | 1.59 |
| RRIRLRPPRLPRPRPRPIIFPRP | -0.288 |
| RRIRNRPPRLPRPRPRPTWQPRP | 0.0252 |
| RRIRSRPPRLPRPRPRPFGRPRP | -0.0701 |
| RRIRLRPPRLPRPRPRPCMNPRP | -0.07 |
| RRIRHRPPRLPRPRPRPQCSPRP | -0.0894 |
| RRIRHRPPRLPRPRPRPKAVPRP | -0.00256 |
| RRIRPRPPRLPRPRPRPYECPRP | 0.0143 |
| RRIRKRPPRLPRPRPRPIMCPRP | -0.0176 |
| RRIRCRPPRLPRPRPRPGEKPRP | 0.0653 |
| RRIRPRPPRLPRPRPRPTIGPRP | -0.128 |
| RRIRKRPPRLPRPRPRPCLGPRP | 0.0457 |
| RRIRNRPPRLPRPRPRPLLAPRP | 0.253 |
| RRIRRRPPRLPRPRPRPACKPRP | 0.163 |
| RRIRHRPPRLPRPRPRPRQNPRP | 0.0341 |
| RRIRRRPPRLPRPRPRPRVWPRP | 0.686 |
| RRIRARPPRLPRPRPRPAWLPRP | 0.597 |
| RRIRCRPPRLPRPRPRPLANPRP | 0.452 |
| RRIRVRPPRLPRPRPRPYLDPRP | 0.0545 |
| RRIRMRPPRLPRPRPRPMMTPRP | 0.141 |
